The values that follow come from paper PMC5325305, “Structural and biochemical studies on Vibrio cholerae Hsp31 reveals a novel dimeric form and Glutathione-independent Glyoxalase activity” (PLoS ONE, 2017).

The test system of data set [1] is CC(=O)C=O. Description: purified protein. To be noted: glutathione-independent, 100 mM sodium phosphate pH 7.5, 1 mM EDTA, 1 mM DTT (printed DDT), 37°C, text lists Km and Vmax values in swapped order, assigned by unit.
The test system of data set [2] is Cc1cc(=O)oc2cc(NC(=O)[C@H](C)N)ccc12. As to the kind of experiment: purified protein. The settings on record: pH 8.0, 37°C, 20 mM Tris, 1 mM dithiothreitol, 3% dimethyl sulfoxide.

For VcHsp31 (Vibrio cholerae), in data set [1], the Km was found to be 250.8 µM and the kcat was found to be 0.6628 s⁻¹. Also, in data set [2], the Km came out at 112.5 µM and the kcat came to 0.00128 s⁻¹.

What is called Km is the concentration of substrate that gives half-maximal velocity. One may read the kcat as the maximal rate divided by the concentration of active sites.
